Experimental findings from patent US20240383970A1 (BEIJING IMMUNOCHINA PHARMACEUTICALS, published 2024) are described below.

Usually EC50 stands for the concentration that produces a half-maximal response. Lower therefore signals greater potency.

The target of the assay is T1, CAR targeting CD19 containing a Strep-Tag II tag, on CAR-T cells (UniProt P01732 138-206; Q07011 214-255; P20963 52-163).
T1 construct: domain: CD8α hinge region, CD8α transmembrane region;domain: intracellular region of 4-IBB;domain: intracellular region of CD3ζ; Expressed on human T cells after lentiviral transduction; also called CAR-T cells containing a Strep-Tag II tag; Strep-Tag II short peptide
T1 sequence (P20963 other isoform, or with tags, fused parts or gaps): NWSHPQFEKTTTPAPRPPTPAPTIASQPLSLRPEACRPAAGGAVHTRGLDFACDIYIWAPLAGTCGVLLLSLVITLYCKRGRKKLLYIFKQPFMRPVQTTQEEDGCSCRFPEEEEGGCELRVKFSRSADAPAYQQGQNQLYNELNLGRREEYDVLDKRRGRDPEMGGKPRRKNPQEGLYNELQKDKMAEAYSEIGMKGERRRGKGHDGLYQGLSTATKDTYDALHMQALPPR
Nature of the assay: flow cytometry titration (10 concentrations) on CAR-T cells with Strep-Tag II tag; filing equates EC50 with KD (saturated concentration method). The text has this: The antibody affinity detection of the present invention adopts the dynamic equilibrium assay method (saturated concentration method). In the presence of a small amount of antigen, the antibody is subjected to gradient dilution to detect the concentration of the antigen-antibody complex. When the concentration of the antigen-antibody complex accounts for half of the total antigen concentration, the corresponding concentration value (EC50) of the antibody is the KD value of the antibody relative to the antigen.
CAR-T cells containing a Strep-Tag II tag were collected, washed with DPBS and counted. The cells were dispensed into several EP tubes at approximately 3×10⁵ cells per tube. After centrifugation to remove the supernatant, 8A882 antibody or 8F8D1 antibody and a positive control antibody (commercial Strep-Tag II antibody, Abcam; Cat #: ab184224) diluted in serial gradient for 10 concentrations were added and incubated at room temperature for 15 minutes. After washing the cells twice with DPBS, PE-labeled rat anti-mouse IgG was added, and incubated at room temperature for 15 minutes. After washing the cells twice, FACS analysis and GraphPad Prism software were used to calculate the EC50 value. […] Compared with the positive control antibody, the two strain antibodies of the present invention have high affinity.
(A flow cytometer gives signals particle by particle.)

Changes are numbered by the printed parent chain.

B1: 8A882 antibody (antibody, mouse IgG1, kappa, V domains shown)
VH: EVQLQQSGPELVKPGASVKMSCKASGYTFTDYYMKWVKQSHGKSLEWIGDINPNNGDTFYNQKFKGKATLTVDKSSSSAYMQLNSLTSEDSAVYYCARYYGNSSPWFAYWGQGTLVTVSA
VL: DIVLTQSPASLAVSLGQRATISCKASQSVDYDGDSYMNWYQQKPGQPPKLLIYAASNLQSGIPARFSGSGSGTDFTLNIHPVEEEDTATYYCQQITEDPWTFGGRTKLEIKR
notes: Mouse monoclonal antibody from a hybridoma, purified from ascites on a Protein A/G column
Regarding B1, the EC50 worked out at 0.4 nM.

B2: 8F8D1 antibody (antibody, V domains shown)
VH: B1 VH with S44R, S78T, N102R, A108P
VL: B1 VL with A12G, Y31N, D32S, Q59E, T87A, T96N
notes: Mouse monoclonal antibody from a hybridoma, purified from ascites on a Protein A/G column; also called PE-labeled 8F8D1 antibody
For the molecule B2, the EC50 was found to be 0.2 nM.
